In patent US20180057596A1 (AstraZeneca / MedImmune, published 2018):

T1: human IL-4Rα on TF-1 cells (human, UniProt P24394 26-825)
T1 sequence (looked up): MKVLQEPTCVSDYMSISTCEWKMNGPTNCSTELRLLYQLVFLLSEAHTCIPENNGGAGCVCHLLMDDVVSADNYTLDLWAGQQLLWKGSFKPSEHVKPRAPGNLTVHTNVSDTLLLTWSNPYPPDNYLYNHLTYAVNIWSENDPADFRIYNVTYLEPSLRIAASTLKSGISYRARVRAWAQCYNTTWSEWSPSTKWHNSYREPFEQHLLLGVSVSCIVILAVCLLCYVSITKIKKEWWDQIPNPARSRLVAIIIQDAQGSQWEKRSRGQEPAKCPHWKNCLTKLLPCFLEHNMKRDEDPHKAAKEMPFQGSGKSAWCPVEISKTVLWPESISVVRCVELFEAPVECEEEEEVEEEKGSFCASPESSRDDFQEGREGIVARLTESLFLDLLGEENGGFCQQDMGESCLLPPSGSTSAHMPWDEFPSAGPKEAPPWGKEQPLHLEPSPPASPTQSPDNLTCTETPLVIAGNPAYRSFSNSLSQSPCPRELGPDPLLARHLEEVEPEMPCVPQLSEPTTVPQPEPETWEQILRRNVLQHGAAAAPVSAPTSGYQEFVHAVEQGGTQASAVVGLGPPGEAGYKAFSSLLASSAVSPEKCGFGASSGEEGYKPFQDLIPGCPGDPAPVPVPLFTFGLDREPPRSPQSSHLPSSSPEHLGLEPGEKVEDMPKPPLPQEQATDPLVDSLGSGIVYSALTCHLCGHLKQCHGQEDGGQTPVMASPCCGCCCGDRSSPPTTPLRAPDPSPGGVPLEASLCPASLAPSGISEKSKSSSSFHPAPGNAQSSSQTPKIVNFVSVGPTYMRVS

T2: human IL4Rα/Fc (R and D Systems 604-4R) (human, UniProt P24394 26-231, limits assumed, biotin labelled in the assay of Example 5)
T2 construct: bought protein; also called IL-4Rα/Fc (R&D systems Cat. No. 604-4R-050); not shown: Fc part of the bought fusion
T2 sequence (looked up): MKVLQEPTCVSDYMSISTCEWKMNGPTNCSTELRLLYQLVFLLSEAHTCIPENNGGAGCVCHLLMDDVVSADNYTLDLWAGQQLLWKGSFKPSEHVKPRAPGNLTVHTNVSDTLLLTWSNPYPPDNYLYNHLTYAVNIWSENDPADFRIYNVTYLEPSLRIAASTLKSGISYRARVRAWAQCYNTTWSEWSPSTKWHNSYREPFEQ


What was measured:
[1] = biological target: T1, human IL-4Rα on TF-1 cells; assay: cell-based or functional assay
[2] = biological target: T3, cynomolgus IL4Rα/Fc HIS6 (HEK expressed) (cynomolgus monkey); assay: HTRF receptor-ligand assay, purified scFv against biotinylated cynomolgus IL4
T3 construct: also called Cyno IL4R; cynomolgus IL-4Rα HIS Fc (in house HEK-EBNA derived); not shown: HIS6 tag

[3] = biological target: T2, human IL4Rα/Fc (R and D Systems 604-4R); assay: HTRF receptor-ligand assay, purified scFv against biotinylated human IL4

T3 sequence (chain, as listed by the source): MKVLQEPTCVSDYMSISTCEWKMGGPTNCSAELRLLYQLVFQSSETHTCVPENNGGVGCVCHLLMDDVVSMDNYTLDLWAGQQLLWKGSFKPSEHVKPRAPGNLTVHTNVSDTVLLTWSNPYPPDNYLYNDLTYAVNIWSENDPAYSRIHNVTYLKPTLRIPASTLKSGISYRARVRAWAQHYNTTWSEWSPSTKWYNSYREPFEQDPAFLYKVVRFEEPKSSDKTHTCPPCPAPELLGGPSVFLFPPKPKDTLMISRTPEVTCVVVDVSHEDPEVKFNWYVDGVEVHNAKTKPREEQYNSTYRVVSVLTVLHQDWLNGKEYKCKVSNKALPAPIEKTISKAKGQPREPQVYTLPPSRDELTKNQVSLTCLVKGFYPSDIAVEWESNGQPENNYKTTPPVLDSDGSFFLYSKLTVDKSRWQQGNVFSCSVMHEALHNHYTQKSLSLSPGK

Row | Binder | IC50 (pM), IL-4 induced TF-1 cell proliferation [1] [pM] | IC50 (pM), IL-13 induced TF-1 cell proliferation [1] [pM] | Ki [2] [nM] | Ki [3] [nM]
1 | Antibody 8 IgG (antibody, V domains shown) VH: QVQLVQSGAEVKKPGASVKVSCKASGYAFTSYYMHWARQAPGQGLEWMGIINPSGGSTSYAQKFQGRVTMTRDTSTSTVYMELSSLRSEDTAVYYCARGKWWWQYWGKGTLVTVSS VL: QSVLTQPPSVSAAPGQKVTISCSGGSSNIGNSYVSWYQQLPGTAPKLLIYDNNKRPSGIPDRFSGSKSGTSATLAITGLQTGDEADYYCGTWDTSTTYHPIFGTGTKLTVL | 7.9 | 22.4 |  | 
2 | Antibody 12 IgG (antibody, V domains shown) VH: QVQLVQSGAEVKKPGASVKVSCKASGYAFTSYYMHWARQAPGQGLEWMGIINPSGGSTSYAQKFQGRVTMTRDTSTSTVYMELSSLRSEDTAVYYCARGKWWFYDWGKGTLVTVSS VL: QSVLTQPPSVSAAPGQKVTISCSGGSSNIGNSYVSWYQQLPGTAPKLLIYDNNKRPSGIPDRFSGSKSGTSATLAITGLQTGDEADYYCGTWDTSTTMYPLFGTGTKLTVL | 18.2 | 40.7 |  | 
3 | Antibody 10 IgG (antibody, V domains shown) VH: QVQLVQSGAEVKKPGASVKVSCKASGYAFTSYYMHWARQAPGQGLEWMGIINPSGGSTSYAQKFQGRVTMTRDTSTSTVYMELSSLRSEDTAVYYCARGKWWLYDWGKGTLVTVSS VL: QSVLTQPPSVSAAPGQKVTISCSGGSSNIGNSYVSWYQQLPGTAPKLLIYDNNKRPSGIPDRFSGSKSGTSATLAITGLQTGDEADYYCGTWDTSTVLTPIFGTGTKLTVL | 10.1 | 25.4 |  | 
4 | Antibody 11 IgG (antibody, V domains shown) VH: QVQLVQSGAEVKKPGASVKVSCKASGYAFTSYYMHWARQAPGQGLEWMGIINPSGGSTSYAQKFQGRVTMTRDTSTSTVYMELSSLRSEDTAVYYCARGKWWFYDWGKGTLVTVSS VL: QSVLTQPPSVSAAPGQKVTISCSGGSSNIGNSYVSWYQQLPGTAPKLLIYDNNKRPSGIPDRFSGSKSGTSATLAITGLQTGDEADYYCGTWDTSPSMIPLFGTGTKLTVL | 18.8 | 32.7 |  | 
5 | Antibody 31 scFv (scFv, V domains shown, tested as purified scFv) VH: QVQLVQSGAEVKKPGASVKVSCKASGYAFTSYYMHWARQAPGQGLEWMGIINPSGGSTSYAQKFQGRVTMTRDTSTSTVYMELSSLRSEDTAVYYCARGKYWMYDWGKGTLVTVSS VL: QSVLTQPPSVSAAPGQKVTISCSGGSSSIGNSYVSWYQQLPGTAPKLLIYDNNKRPSGIPDRFSGSKSGTSATLAITGLQTGDEADYYCGTWATSPVWEWPFGTGTKLTVL |  |  | 2.2 | 0.044
6 | Antibody 33 scFv (scFv, V domains shown, tested as purified scFv) VH: QVQLVQSGAEEKKPGASVKVSCKASGYAFTSYYMHWARQAPGQGLEWMGIINPSGGSTSYAQKFQGRVTMTRDTSTSTVYMELSSLRSEDTAVYYCARGKYWMYDWGKGTLVTVSS VL: QSALTQPPSVSAAPGQKVTISCSGGSSNIGNSYVSWYQQLPGTAPKLLIYDNNKRPSGIPDRFSGSKSGTSATLAITGLQTGDEADYFCGTWDTSTVWEWPFGTGTKLTVL |  |  | 1.4 | 0.092
7 | Antibody 40 scFv (scFv, V domains shown, tested as purified scFv) VH: QVQLVQSGAEVKKPGASVKVSCKASGYAFTSYYMHWARQAPGQGLEWMGIINPSGGSTSYAQKFQGRVTMTRDTSTSTVYMELSSLRSEDTAVYYCARGKYWMYDWGKGTLVTVSS VL: QSVLTQPPSVSAAPGQKVTISCSGGSSNIGNSYVSWYQQLPGTAPKLLIYDNNKRPSGIPDRFSGSKSGTSATLAITGLQTGDEADYYCGTWDSSTVWEWPFGTGTKLTVL |  |  | 6.5 | 0.031
8 | Antibody 37GL scFv (scFv, V domains shown, tested as purified scFv; also called NCIMB 41600) VH: QVQLVQSGAEVKKPGASVKVSCKASGYAFTSYYMHWVRQAPGQGLEWMGIINPRGGSTSYAQKFQGRVTMTRDTSTSTVYMELSSLRSEDTAVYYCARGKYWMYDWGKGTLVTVSS VL: QSVLTQPPSVSAAPGQKVTISCSGGGSSIGNSYVSWYQQLPGTAPKLLIYDNNKRPSGIPDRFSGSKSGTSATLGITGLQTGDEADYYCGTWDTSPVWEWPFGTGTKLTVL |  |  | 0.7 | 0.061
9 | Antibody 28 scFv (scFv, V domains shown, tested as purified scFv) VH: QVQLVQSGAEVKKPGASVKVSCKASGYAFTSYYMHWARQAPGQGLEWMGIINPSGGSTSYAQKFQGRVTMTRDTSTSTVYMELSSLRSEDTAVYYCARGKYWMYDWGNGTLVTVSS VL: LPVLTQPPSVSAAPGQKVTISCSGGSSSIGNSYVSWYQQLPGAAPKLLIYDNNKRPSGIPDRFSGFRSGTSATLAITGLQTGDEADYYCGTWDTSPVWEWPFGTGTKLTVL |  |  | 1.8 | 0.094
10 | Antibody 37 scFv (scFv, V domains shown, tested as purified scFv) VH: QVQLVQSGAEVKKPGASVKVSCKASGYAFTSYYMHWARQAPGQGLEWMGIINPRGGSTSYAQKFQGRVAMTRDTSTSTVYMELSSLRPEDTAVYYCARGKYWMYDWGKGTLVTVSS VL: QSVLTQPPSVSAAPGQKVTISCSGGGSSIGNSYVSWYQQLPGTAPKLLIYDNNKRPSGVPDRFSGSKSGTSATLAITGLQTGDEADYYCGTWDTSPVWEWPFGTGTKLTVL |  |  | 0.8 | 0.04
11 | Antibody 38 scFv (scFv, V domains shown, tested as purified scFv) VH: QVQLVQSGAEVKKPGASVKVSCKASGYAFTSYYMHWARQAPGQGLEWMGIINPSGGSASYAQKFQGRVTMTRDTSTSTVYMELSSLRSEDTAVYYCARGKYWMYDWGKGTLVTVSS VL: QSVLTQPPSVSAAPGQKVTISCSGGSSNIGNSYVSWYQQLPGTAPKLLIYDNNKRPSGIPDRFSGSKSGTSATLAITGLQTGDEADYFCGTWDTSTVWEWPFGTGTKLTVL |  |  | 2.7 | 0.066
12 | Antibody 42 scFv (scFv, V domains shown, tested as purified scFv) VH: QVQLVQSGAEVKKPGASVKVSCKASGYAFTSYYMHWARQAPGQGLEWVGIINPSGGSTSYAQKFQGRVTMTRDTSTSTVYMELSSLRSGDTAVYYCARGKYWMYDWGKGTLVTVSS VL: QAVLTQPPSVSAAPGQKVTISCSGGSSNIGNSYVSWYQRLPGAAPKLLIYDNNKRPSGIPDRFSGSKSGTSATLAITGLQTGDEADYYCGTWDTSTGWEWPFGTGTKLTVL |  |  | 2.5 | 0.027
13 | Antibody 30 scFv (scFv, V domains shown, tested as purified scFv) VH: QVQLVQSGAEVKKPGASVKVSCKASGYAFTSYYMHWARQAPGQGLEWMGIINPSGGSTSYAQKFQGRVTMTRDTSTSTVYMELSSLRSEDTAVYYCARGKYWMYDWGKGTLVTVSS VL: QSVLTQPPSVSAAPGQKVTISCSGGSSNIGNSYVSWYQRLPGAAPKLLIYDNNKRPSGIPDRFSGSKSGTSATLAITGLQTGDEADYYCGTWDTSTVWEWPFGTGTKLTVL |  |  | 3.6 | 0.069
14 | Antibody 35 scFv (scFv, V domains shown, tested as purified scFv) VH: QVQLVQSGAEVKKPGASVKVSCKASGYAFTSYYMHWARQAPGQGLEWMGIINPSGGSTSYAQKFQGRVTMTRDTSTSTVYMELSSLRSEDTAVYYCARGKYWMYDWGKGTLVTVSS VL: QSVLTQPPSVSAAPGQKVTISCSGGSSNIGNSYVSWYQQLPGTAPKLLIYDNNKRPSGIPDRFSGSKSGTSATLAITGLQTGDEADYYCGTWDTSPVWEWPFGTGTKLTVL |  |  | 2.6 | 0.071
15 | Antibody 41 scFv (scFv, V domains shown, tested as purified scFv) VH: QVQLVQSGAEVRKPGASVKVSCKASGYAFTSYYMHWARQAPGQGLEWMGIINPSGGSTSYAQKFQGRVTMTRDTSTSTVYMELSSLRPEDTAVYYCARGKYWMYDWGKGTLVTVSG VL: QSVLTQPPSVSAAPGQKVTISCSGGSTNIGNSYVSWYQRLPGTAPKLLIYDNNKRPPGIPDRFSGSKSGTSATLAITGLQTGDEADYYCGTWDTSTVWEWPFGTGTKLTVL |  |  | 2.7 | 0.053
16 | Antibody 27 scFv (scFv, V domains shown, tested as purified scFv) VH: QVQLVQSGAEVRKPGASVKVSCKASGYAFTSYYMHWARQAPGQGLEWMGIINPSGGSTSYAQKFQGRVTMTRDTSTSTVYMELSSLRPEDTAVYYCARGKYWMYDWGKGTQVTVSS VL: QSVLTQPPLVSAAPGQKVTISCSGGSSNIGNSYVSWYQRLPGTAPKLLIYDNNKRPSGIPDRFSGSKSGTSATLAITGLQTGDEADYYCGTWDTSTVWEWPFGTGTKLTVL |  |  | 2.8 | 0.063
